The source of these data is patent publication US20250188143A1, “COMBINED GENE AND RADIO THERAPY FOR THE TREATMENT OF CANCER” (FUNDACION PARA LA INVESTIGACION MEDICA APLICADA, priority 2022, published 2025).

In one series the target is T1, murine STING (Mus musculus, UniProt Q3TBT3).
T1 sequence (Q3TBT3 1-378): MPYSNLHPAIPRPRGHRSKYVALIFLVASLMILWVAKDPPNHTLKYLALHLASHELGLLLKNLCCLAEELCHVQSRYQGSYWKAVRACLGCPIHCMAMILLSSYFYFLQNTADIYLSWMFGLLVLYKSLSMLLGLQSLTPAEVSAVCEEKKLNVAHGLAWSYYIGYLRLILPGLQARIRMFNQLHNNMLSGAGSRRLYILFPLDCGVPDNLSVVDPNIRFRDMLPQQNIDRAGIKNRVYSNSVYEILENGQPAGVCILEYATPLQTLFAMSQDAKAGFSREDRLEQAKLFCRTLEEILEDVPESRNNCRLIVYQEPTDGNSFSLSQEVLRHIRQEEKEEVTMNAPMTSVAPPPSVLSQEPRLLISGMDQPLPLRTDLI
As to conditions: cited from earlier work.

A further series has as its system B16 cells. Briefly: Radiation and IFN signaling on activation of the ISREx4 promoter (luciferase). The format is cell-based, murine. The settings on record: B16 cells transduced with AAV8-ISREx4-LucmiR122T.
For series [1], the system named is MC38 cells stably expressing hSTINGmut. As to the kind of experiment: Luciferase activity under synthetic promoters. As to conditions: DMXAA 50 μg/mL. The format is cell-based, murine. From the text:
(§1) Seven different promoters were generated, namely short STATx4 (4 STAT motifs separated by 6 nucleotides according to SEQ ID NO: 26), IRSF3×4 (4 IRSF3 motifs separated by 20 nucleotides according to SEQ ID NO: 27), short IRSF3×4 (4 IRSF3 motifs separated by 6 nucleotides according to SEQ ID NO: 28), ISREx4 (4 ISRE motifs separated by 20 nucleotides according to SEQ ID NO: 12), short ISREx4 (4 ISRE motifs separated by 6 nucleotides according to SEQ ID NO: 13), NFκBx4 (4 NFκB motifs separated by 20 nucleotides according to SEQ ID NO: 29) and short NFκBx4 (4 NFκB motifs separated by 6 nucleotides according to SEQ ID NO: 30). […] In addition, a plasmid containing the luciferase sequence under the control of the murine IFN-β-promoter (mIFN-β) and a plasmid containing the luciferase sequence under the control of CXCL10-promoter were used as controls. Either MC38 cells or human HEK293T cells, both which stably expressed hSTINGmut as described above (example 1), were transfected with the indicated plasmids using Lipofectamine3000 according to the manufacturers protocol, whereas a negative control was mock-transfected (Basic).

In series [2] the test system is MC38 cell lines stably expressing hSTINGmut. As to the kind of experiment: scIL-12 mRNA and protein expression under STING-activity dependent promoters. The settings on record: for scIL-12 mRNA or protein expression upon DMXAA: DMXAA 50 μg/mL. The format is cell-based, murine. The text has this: The CXCL9-promoter and the CXCL10-promoter from experiment 2, and a full length IFN-β-promoter (IFN-β according to SEQ ID NO: 25) were used for the following experiment. To this end, lentiviral vectors encoding murine scIL-12 under the control of these three different promoters were constructed. […] After the indicated time points, cells were harvested. The cell lysate was used to measure scIL-12 mRNA expression by qPCR as described before (example 1, experiment 1), whereas the supernatant was used to measure secreted scIL-12 protein in NUNC MaxiSorp flat-bottom 96-well plates using an ELISA assay kit (OptEIA, Mouse IL-12 (p70), BD Biosciences, San Diego, CA USA), following manufacturer's instructions.

Series [3] relates to HEK293T cells stably expressing hSTINGmut. As to the kind of experiment: Luciferase activity under synthetic promoters. The format is cell-based, human. As to conditions: for luciferase activity upon DMXAA (inducibility): DMXAA 50 μg/mL; for luciferase activity in the absence of DMXAA (leakage): vehicle.
From the text: as §1

In series [4] the test system is MC38 cell lines stably expressing hSTINGmut. Briefly: Luciferase activity under chemokine promoters. The format is cell-based, murine. The settings on record: for luciferase activity upon DMXAA: DMXAA 50 μg/mL, 3 or 6 h, compared to the IFN-β promoters; for luciferase activity in the absence of DMXAA (leaky expression): vehicle. As for the experimental part:
The CXCL9-promoter (CXCL9 according to SEQ ID NO: 23) and the CXCL10-promoter (CXCL10 according to SEQ ID NO: 24) were used for the following experiment. To this end, lentiviral vectors encoding luciferase under the control of these two different promoters were constructed. […] In addition, the lentiviral vectors encoding the short IFN-β A promoter, the short IFN-β B promoter, the short IFN-β C promoter described in experiment 1 were used as a comparison. […] After another 3 or 6 h, cells were harvested and luciferase activity measured as described in experiment 1.

Setting [5] is: 1,000 IU interferon alone (0 Gy).
Where [6] appears, read: interferon together with radiation 8 Gy.

Description for B16 cells: To this end, B16 cells received 8 Gy or 0 Gy as described above and then were transduced with AAV8-ISREx4-LucmiR122T (1×10^5 viral genomes/cell) and 48 h later 1,000 IU of either IFN-α, IFN-β or IFN-γ were added to the culture and luciferase activity was measured 48 h later as described above.

As to `O=C(O)Cc1cccc2c(=O)cc(-c3ccccc3)oc12` [FAA, flavone-8-acetic acid], the “activation of murine STING” value at murine STING is “activated”.
With IFN-α, the luciferase activity result in the series with B16 cells (setting [5]) is on record as “significantly increased luciferase activity”; with B16 cells (setting [6]), “induced luciferase activity dramatically”.

B1: short STAT-promoter: 4 STAT motifs separated by 6 nucleotides according to SEQ ID NO: 26 (nucleic acid)
DNA: ATCTCTGCGATGAACCTCACTTCGCTAGAAATCTCTGCGATGAACCTCACTTCGCTAGAAATATCTCTGCGATGAACCTCACTTCGCTAGAAATCTCTGCGATGAACCTCACTTCGCTAGAAGTGCCTCTTATGATCTGGATCTCGAGCCATGGTCGAGGCCTGTAGGCGTGTACGGTGGGAGGCTTATATAAGCAGAGCTC
modifications: misc_feature 1..202 STATx4
B1: the “luciferase activity upon DMXAA (inducibility)” value in series [1] is given as “poor inducibility”.

B2: IFN-γ: exogenously added interferon, 1,000 IU (protein, UniProt P01579 24-161, looked up)
Interferon gamma: QDPYVKEAENLKKYFNAGHSDVADNGTLFLGILKNWKEESDRKIMQSQIVSFYFKLFKNFKDDQSIQKSVETIKEDMNVKFFNSNKKKRDDFEKLTNYSVTDLNVQRKAIHELIQVMAELSPAAKTGKRKRSQMLFRG
Regarding B2, the luciferase activity result with B16 cells (setting [5]) was “significantly increased luciferase activity”; in the series on B16 cells (setting [6]), “induced luciferase activity dramatically”.

B3: IFN-β-promoter: full length IFN-β-promoter according to SEQ ID NO: 25 (nucleic acid, listed as Mus musculus)
DNA: CCAGGATGTGGGGTTCTCTCCCAAAGGGAGCTATGGCCCATTGATGTGCCATTTCTCTTATAGTACACTATTGTAAGCCCCCTGGGAGCTCACAGAGACCCTCTCCCACCATCCCACTATTTCAAAGGGCAGCAGCTGTGCCATCCTTTCAGGATGAGCAGCTACTCTGCCTGGCTTTTCAGTGGACACTTTGGCTGTTTGAGAGTTCTTTTATCTTCAGGGCTGTCTCCTTTCTGTTCTTCTCTCCTGGATATTTCTCTTCCTTTGCTCCAGCAATTGGTGAAACTGTACAAGATTTTATAAATCCTTAGTTTGTATATATTTTAACCCAGTACATAGCATATAAAATAGCCAGGAGCTTGAATAAAATGAATATTAGAAGCTGTTAGAATAAGAGAAAATGACAGAGGAAAACTGAAAGGGAGAACTGAAAGTGGGAAATTCCTCTGAGGCAGAAAGGACCATCCCTTATAAATAGCACAGGCCATGAAGGAAGATCATTCTCACTGCAGCCTTTGACAGCCTTTGCCTCATCTTGCAGGTAGCAGCCGACACCAGCCTGGCTTCCATC
modifications: misc_feature 1..571 IFNb1-promoter
In the case of B3, in series [2], the “scIL-12 mRNA or protein expression upon DMXAA” value was “poor”.

B4: ISREx4-promoter: 4 ISRE motifs separated by 20 nucleotides according to SEQ ID NO: 12 (nucleic acid)
DNA: ATCTCTGCGATGAACCTCACAGTTTCGCTTTCTATCTCTGCGATGAACCTCACAGTTTCGCTTTCTATCTCTGCGATGAACCTCACAGTTTCGCTTTCTATCTCTGCGATGAACCTCACAGTTTCGCTTTCTGTGCCTCTTATGATCTGGATCTCGAGCCATGGTCGAGGCCTGTAGGCGTGTACGGTGGGAGGCTTATATAAGCAGAGCTC
modifications: misc_feature 1..212 ISREx4
Turning to B4, in series [3], the “luciferase activity upon DMXAA (inducibility)” value was “highest inducibility” and the “luciferase activity in the absence of DMXAA (leakage)” value is on record as “undetectable leakage”.

B5: CXCL9-promoter: CXCL9 promoter according to SEQ ID NO: 23 (nucleic acid, listed as Mus musculus)
DNA: GACACAGACATCTCGTGAAACATCTGGAAAAGGTAGCAGGGAACGGGACAGCAGTAGCTTATGCAACTAATCTAGCAATTACAATGATAGGAAACTGTAGCCACGGTGAGACGAAATGGATTTACCCTCAACAAATTAAGAAGCTTTGACTTGTGAGGAAAGGCAGTTTGAGTCGCCATATAGTGTCATGTCCCACGTGGGAAGTACATCTCCAACCTTCATTGTACAACATTAATATAGTCATTGTATAATCTATTCCACATCCAGGTAGCAACTTTGCCTGGGGGTGGTTTCACATCCCTTACTATAAACTCCCCGTTTATGTGAAATGGAAGTAGAACATGCAGAAATTCCCTGGGATCTGAGAGTAGGGTTTTCCCCAGGACGATCAATTTGTGGTTAGTTTAGTTCTTCTAGGTCAGCTGAGGAGACCAGCCAATCAGAGACGGGAAGGAAAAGGGATTTCCTAAATAAATATGATCCCCAAGAACATGCTCTCTAAAGACATTCTCGGACTTCACTCCAACACAGTGACTCAATAGAACTCAGCTCTGCC
modifications: misc_feature 1..556 CXCL9-promoter
In the case of B5, in series [4], the “luciferase activity upon DMXAA” value is listed as “significantly higher luciferase activities” and the “luciferase activity in the absence of DMXAA (leaky expression)” value is “significant luciferase activity”. Besides, in series [2], the “scIL-12 mRNA or protein expression upon DMXAA” value is “poor”.

B6: CXCL10-promoter: CXCL10 promoter according to SEQ ID NO: 24 (nucleic acid, listed as Mus musculus)
DNA: TCTAACTGTTCACTAAGTTGTATAGACTTTGGATCTGGCTAAATTTGGCGTGTGATTTTTTTTTAAAGTTTATTCCAAGTATTTTATAATAAAGCATATGAAGTAAAAAGCAAAAATAAACAGTGTAAACACAACAAATGTAAAAACCATGGTTAGAACCTGACTTAGATATCAGTTCTGTGTTTTATTTATGAGAGAAGGAAGATGAGAATTAAAGCCATTTCCAGACTTATTCTGCAAGGCACTGCATCTGATTTCTCAAACAGCTCACGCTTTGGAAAGTGAAACTTACCTCACTCGTTAAAAATTAAAAGGAGCACAAGAGGGGAGAGGGAAATTCCAAGTTCATGGGTCACAATAAACACAAGCAATGCCCTCGGTTTACAGGGGACTTCCCTCGGGTTGCGGAGCCTTGCTGAGTCATCTCCAAAGTCAGCCAATCAGGACTCAGGGAGGGAAACTCTTTGCAGATAAATACTCCTCAGCAGCCGGCACTCGAGAAGCGCTTCATCCACCGCTGAGAGACATCCCGAGCCAACCTTCCGGAAGCCTCCCCATCAGCACC
modifications: misc_feature 1..565 CXCL10-promoter
In the case of B6, in series [4], the “luciferase activity upon DMXAA” value is on record as “significantly higher luciferase activities” and the “luciferase activity in the absence of DMXAA (leaky expression)” value is “significant luciferase activity”. Further, in series [2], the “scIL-12 mRNA or protein expression upon DMXAA” value was “highly upregulated”. Besides, the “scIL-12 production in the absence of DMXAA (leakage)” value in series [2] (vehicle) was “significant leakage”. In addition, in series [3], the “luciferase activity upon DMXAA (inducibility)” value is on record as “highest inducibility” and the “luciferase activity in the absence of DMXAA (leakage)” value is “considerable leakage”.
